To fix the notation:
B1: LINE1-full (parent)
chain: UACGUAGGUGGUUUUCCCCUGAUAGUGCUAAGGGGGCCUGGAAGUUUGGACUGGGCAGAGCUCAACACAGCGUGGCAAAGUGGCUGUGGCUAGACUGCCUCUCUGGAUUCCUCGUCACUCAGCAGGGCAUCUCUGAGAGAAAUGCC

The variants in this data set derive from B1. The experiment in a line: self-cleavage, relative activity (ratio to wild type); higher = more cleavage; in vitro, sequencing; the parent is a self-cleaving ribozyme.
For the variant U39A A64U, the self-cleavage came out at 0.47.
Take G36C U132C: the self-cleavage worked out at 1.27.
To G36A U45C belongs 1.81; to G36C A77G, 1.6; to G35C, 1.31.
To G35A belongs 1.1; to G35U, 1.22; to C38U C98G, 0.12.
To U39A G80A belongs 2.24.
Regarding G36A U115A, the self-cleavage stood at 1.39.
Regarding G36A U115C, the self-cleavage was 1.53.
To G36C U39G belongs 0.76.
Turning to C38U U87C, the self-cleavage was determined as 0.06.
As for G35U A124G, the figure is 0.68.
To C37A G58A belongs 0.03.
As for U39A A117U, the figure is 1.63.
With G34A A140U, the self-cleavage was 1.29.
As for C37U A57U, the figure is 0.05; as for G34A A129G, 1.08; as for G34A U102A, 1.16.
As for G35A A65G, the figure is 0.05; as for G35U U91C, 0.52; as for C37A U87G, 0.12.
As for C38U A142U, the figure is 0.32; as for C38U A142G, 1.4; as for U39A G54A, 0.66.
On to C38U A79G, for which the self-cleavage was found to be 1.29.
With G35C U62C, the self-cleavage came out at 0.06.
On to C37G U132C, for which the self-cleavage amounted to 0.94.
For the variant C37G U132A, the self-cleavage came to 1.23.
To G36U A78G belongs 1.5.
To G36C C71G belongs 0.15.
To G34C U143C belongs 2.
As for G36A U109C, the self-cleavage came out at 0.75.
As for C37U U100C, the self-cleavage came to 1.66.
Regarding G35U A50U, the self-cleavage was 0.57.
To C37A A65G belongs 0.01; to C37U C128A, 1.23.
With G36C U62C, the self-cleavage worked out at 0.05.
As for U39A C66U, the figure is 0.05.
Turning to G36A C113U, the self-cleavage came out at 1.02.
As for U39A G93A, the figure is 0.04; as for C37G A121G, 1.23; as for G34A A67C, 0.03.
Take C37A G88U: the self-cleavage came out at 0.
As for G34A G126A, the figure is 1.68.
As for G34A G114A, the figure is 1.47; as for C37U U119A, 0.99; as for G35U A138G, 1.47.
Take U39A C133U: the self-cleavage was 1.41.
As for G34A U87G, the figure is 0.2; as for G36C A121G, 1.39; as for U39A A142G, 1.53.
As for C37U U85A, the figure is 0.05; as for G35C C113A, 1.68; as for C38U U73C, 1.76.
As for G34U U115C, the figure is 1.84; as for G35A A136G, 1.21; as for G35U A65U, 0.12.
As for U39A G97A, the self-cleavage was determined as 0.12.
In the case of G36C U85C, the self-cleavage came to 0.16.
As for C37U A124U, the figure is 1.12.
In the case of C37U A124G, the self-cleavage was found to be 0.59.
As for G34A U132A, the figure is 1.51.
To G36A C84U belongs 0.15; to C38U A78G, 1.28.
With C38U U47G, the self-cleavage came out at 0.78.
C38U U134A: the self-cleavage is 1.23.
To G34U A124U belongs 1.6.
Take G34U A50U: the self-cleavage amounted to 0.39.
In the case of C37U A59G, the self-cleavage turned out to be 0.07.
As to G34A G72A, the self-cleavage amounted to 1.24.
On to G36A A141G, for which the self-cleavage is 1.38.
As to G34U A92G, the self-cleavage is 0.14.
U39A G70U: the self-cleavage is 0.05.
For the variant G35U G40A, the self-cleavage stood at 0.85.
For G35A A42G, the self-cleavage is 1.17.
As for C37U C68A, the figure is 0.03; as for G35A A50G, 0.58; as for G34U A67G, 0.54.
Turning to C38U A92G, the self-cleavage was determined as 0.05.
To G34U A136G belongs 1.54.
As for G35A A57U, the figure is 0.05; as for C37G A129G, 0.9.
For G34U A69G, the self-cleavage turned out to be 0.47.
As to C37G A124G, the self-cleavage was 1.61.
To C37U A78G belongs 0.96; to C38U G74A, 1.27.
For G34U C146U, the self-cleavage worked out at 1.39.
Take G35C U143A: the self-cleavage came to 1.39.
As to G35C U143G, the self-cleavage came out at 0.86.
With C38A U108A, the self-cleavage is 1.01.
Turning to G36C U45C, the self-cleavage was determined as 1.05.
Take G34U C63A: the self-cleavage was found to be 0.04.
As for G35U G74A, the figure is 1.22; as for U39A C71U, 0.97; as for G34A A124G, 0.
G34A A124U: the self-cleavage was determined as 1.32.
On to C38G A43G, for which the self-cleavage was determined as 1.6.
As to C38A G55C, the self-cleavage was determined as 0.07.
As for G36A U62C, the figure is 0.05; as for G34C A124G, 2.03; as for G34C A124U, 1.91.
As for C38U C84G, the figure is 0.09; as for G36A U143C, 1.57.
Turning to G34A A107U, the self-cleavage was 1.2.
As for C37U U104A, the self-cleavage amounted to 0.59.
As for C37U U104C, the figure is 1.28; as for G36U A43U, 1.24.
As for C38U A141G, the figure is 0.84.
As for G34U A94G, the self-cleavage is 0.26.
With G35A U85C, the self-cleavage worked out at 0.09.
As for U39A G49A, the figure is 1.06; as for U39A A121U, 1.58; as for U39A A121G, 1.69.
Turning to C37U G86A, the self-cleavage was 0.1.
To G35A U130A belongs 1.1; to G36C C146U, 1.29; to G36C C146G, 1.21.
For G35U U104C, the self-cleavage is 0.8.
To C38A G44U belongs 1.48.
As for G34U U47G, the figure is 1.04.
U39A A50G: the self-cleavage was 1.29.
As for C38U A136G, the figure is 1.89; as for C37A A136G, 1.04.
Take G36A A77G: the self-cleavage turned out to be 1.35.
Regarding G36C A94G, the self-cleavage amounted to 0.32.
Consider G34A U96G, for which the self-cleavage was determined as 0.09.
As to G34A U96A, the self-cleavage worked out at 0.05.
Consider G34A U96C, for which the self-cleavage was 0.05.
In the case of G36A C95G, the self-cleavage is 0.02.
As for C37G A57G, the figure is 0.73; as for C37G A57U, 0.1.
To C38U G144A belongs 1.36.
In the case of G35A G72A, the self-cleavage came out at 1.18.
To U39A A42G belongs 1.21; to U39A A42U, 1.35; to G36A U52A, 1.21.
Turning to G35C A65G, the self-cleavage is 0.04.
As for C38A U109A, the figure is 1.36; as for C38U U112C, 1.35; as for C38A A129G, 1.46.
Regarding G36A A124C, the self-cleavage is 2.16.
G36A A124U: the self-cleavage was 0.31.
To C37U U134C belongs 1.25; to G36A U46C, 1.32.
C38U A57U: the self-cleavage was 0.15.
In the case of G36U U52C, the self-cleavage worked out at 1.19.
To C38U U119A belongs 1.24.
On to C38U U119C, for which the self-cleavage is 1.47.
To C38U A129U belongs 0.31; to G36A U130C, 1.27.
With G36U A77G, the self-cleavage came out at 2.39.
Take C37G A77U: the self-cleavage amounted to 1.06.
As to G34C U115C, the self-cleavage worked out at 1.82.
As for G34U U46A, the self-cleavage amounted to 1.32.
As for G35U A117U, the self-cleavage came to 1.04.
On to G35A U119C, for which the self-cleavage worked out at 1.3.
Take G35U A69G: the self-cleavage worked out at 0.6.
Turning to C37U G55A, the self-cleavage turned out to be 0.12.
Regarding G34A U47C, the self-cleavage is 1.18.
In the case of C37U U132C, the self-cleavage was determined as 1.21.
For the variant C38U A138C, the self-cleavage is 1.46.
As for C37U G53A, the figure is 1.33; as for G34A U62C, 0.02.
To C37A U91C belongs 0.41.
G36A U47C: the self-cleavage turned out to be 0.9.

Values taken from the RNAGym collection of RNA variant scans (doi:10.7554/elife.90254).
